We go through one molecule from US20140302021A1 (ONCLAVE THERAPEUTICS, published 2014).

No end group written: not given here.

The target in the assay is T1, CGGHEDT (SEQ ID NO: 17) conjugated to Ovalbumin (also: conjugated to ovalbumin).
T1 construct: Peptide-carrier conjugate used as the ELISA antigen
T1 peptide: CGGHEDT
Briefly: competitive binding ELISA. An excerpt:
A competitive binding ELISA has been established to measure binding of humanized 2A4 to its antigen (CGGHEDT (SEQ ID NO: 17) when conjugated to Ovalbumin) compared to the reference standard.

B1: humanized 2A4 antibody (IgG1, kappa isotype version of murine 2A4) (antibody, V domains shown)
VH: EVQLVESGGGLVQPGGSLRLSCAASGFTFNTYAMYWIRQAPGKGLEWVARIRSKSNNYAIYYADSVKDRFTISRDDSKNSLYLQMNSLKTEDTAVYYCARPYSDSFAYWGQGTLVTVSS
VL: DVVMTQSPLSLPVTPGEPASISCRSSQSLVHSTGNTYLHWYLQKPGQSPQLLIYKVSNRFSGVPDRFSGSGSGTDFTLKISRVEAEDVGVYYCSQSTHVPFTFGGGTKVEIKR
modifications: N-linked glycosylation at the consensus sequence, positions 299 to 301
notes: Human IgG1 of G1m(3) allotype, kappa; also called h2A4; humanized 2A4 drug substance
Regarding B1, the binding result is given as “binds”.
